Experiments:
Experiment in all cases: BLI
Conditions in all cases: BLI: 20 mM Tris-HCl pH 7.4, 80 mM NaCl, temperature not stated; pull-down: 20 mM Tris-HCl pH 7.5, 300 mM KCl, 0.2 mM EDTA, 0.5 mM DTT, 5 ug/ml poly(I.C) …
[1] = test system: T1, RBM45 domain 2-3, Q8IUH3-3
T1 sequence: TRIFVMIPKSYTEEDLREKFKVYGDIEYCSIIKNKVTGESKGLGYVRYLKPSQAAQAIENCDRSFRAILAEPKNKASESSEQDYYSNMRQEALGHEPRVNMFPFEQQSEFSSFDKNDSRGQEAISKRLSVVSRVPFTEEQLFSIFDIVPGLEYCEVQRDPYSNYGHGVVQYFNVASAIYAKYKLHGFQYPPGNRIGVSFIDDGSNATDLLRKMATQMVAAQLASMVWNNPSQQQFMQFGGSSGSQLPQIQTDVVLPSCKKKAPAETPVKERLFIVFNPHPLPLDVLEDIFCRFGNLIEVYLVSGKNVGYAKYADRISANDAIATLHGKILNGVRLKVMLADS

[2] = test system: T2, RBM45 RRM2-HOA (domain 2-HOA), Q8IUH3-3
T2 sequence: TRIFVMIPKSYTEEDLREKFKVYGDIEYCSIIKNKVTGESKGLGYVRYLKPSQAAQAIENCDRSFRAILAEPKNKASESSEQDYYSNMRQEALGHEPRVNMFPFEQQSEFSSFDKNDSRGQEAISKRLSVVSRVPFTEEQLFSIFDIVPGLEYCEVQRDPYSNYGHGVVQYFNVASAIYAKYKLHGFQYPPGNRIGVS

[3] = test system: T3, RBM45 aa 2-257 as printed, Q8IUH3-3
T3 sequence: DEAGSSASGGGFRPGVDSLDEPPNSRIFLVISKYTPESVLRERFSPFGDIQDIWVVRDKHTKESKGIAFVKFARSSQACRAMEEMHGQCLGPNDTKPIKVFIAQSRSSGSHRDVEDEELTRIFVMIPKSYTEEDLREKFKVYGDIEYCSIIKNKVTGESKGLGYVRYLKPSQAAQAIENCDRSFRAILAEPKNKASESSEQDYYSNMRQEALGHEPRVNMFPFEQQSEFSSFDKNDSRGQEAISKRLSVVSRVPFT

## GUAAAGCUACGGGACGGU [ISE3]
[1]
  Kd: 21.8 nM
[2]
  Kd: 21.3 nM
[3]
  Kd: 43 nM

— PMC7064759
